This sample holds only a part of the variants without activity.
Key:
biotinyl-Met-oxazolone = experiment: self-aminoacylation, catalytic enhancement (BMO) (fold over background); higher = more active; k-Seq, kA / k0A0; sequences stand for … in GGGAAUGGAUCCACAUCUACGAAUUC…UUCACUGCAGACUUGACGAAGCUG
How it was run: (§1)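 Mutagenized RNA pools with a 21-nt variable region (0.43 μM) reacted with each biotinyl-aminoacyl-oxazolone at 2–1250 μM. Reactions ran in 50 μL HEPES/NaCl/KCl/MgCl2/CaCl2 buffer with 5% acetonitrile, pH 6.9–7.0, for 90 minutes at room temperature. Streptavidin-captured RNA was quantified by triplicate qPCR and Illumina sequencing, and per-sequence fraction reacted was fit to a pseudo-first-order model with 1000 bootstraps. Catalytic enhancement is median kA divided by the uncatalyzed rate, the low-activity peak of a bimodal Gaussian fit.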

biotinyl-Trp-oxazolone = experiment: self-aminoacylation, catalytic enhancement (BWO) (fold over background); higher = more active; k-Seq, kA / k0A0; sequences stand for … in GGGAAUGGAUCCACAUCUACGAAUUC…UUCACUGCAGACUUGACGAAGCUG
How it was run: as §1

biotinyl-Val-oxazolone = experiment: self-aminoacylation, catalytic enhancement (BVO) (fold over background); higher = more active; k-Seq, kA / k0A0; sequences stand for … in GGGAAUGGAUCCACAUCUACGAAUUC…UUCACUGCAGACUUGACGAAGCUG
How it was run: as §1

biotinyl-Leu-oxazolone = experiment: self-aminoacylation, catalytic enhancement (BLO) (fold over background); higher = more active; k-Seq, kA / k0A0; sequences stand for … in GGGAAUGGAUCCACAUCUACGAAUUC…UUCACUGCAGACUUGACGAAGCUG
How it was run: as §1

biotinyl-Phe-oxazolone = experiment: self-aminoacylation, catalytic enhancement (BFO) (fold over background); higher = more active; k-Seq, kA / k0A0; sequences stand for … in GGGAAUGGAUCCACAUCUACGAAUUC…UUCACUGCAGACUUGACGAAGCUG
How it was run: as §1

biotinyl-Ile-oxazolone = experiment: self-aminoacylation, catalytic enhancement (BIO) (fold over background); higher = more active; k-Seq, kA / k0A0; sequences stand for … in GGGAAUGGAUCCACAUCUACGAAUUC…UUCACUGCAGACUUGACGAAGCUG
How it was run: as §1

## AUUACCCUGGCCAUGGAGUGA [Fam2.1 aminoacylation ribozyme variant]
biotinyl-Met-oxazolone
  self-aminoacylation: 4.45
biotinyl-Trp-oxazolone
  self-aminoacylation: 5.9
biotinyl-Val-oxazolone
  self-aminoacylation: 2.79
biotinyl-Leu-oxazolone
  self-aminoacylation: 4.12
biotinyl-Phe-oxazolone
  self-aminoacylation: 19.7
biotinyl-Ile-oxazolone
  self-aminoacylation: 3.24

## AUUACCCUGGCGAUCGAGUGA [Fam2.1 aminoacylation ribozyme variant]
biotinyl-Met-oxazolone
  self-aminoacylation: 4.06
biotinyl-Trp-oxazolone
  self-aminoacylation: 4.59
biotinyl-Val-oxazolone
  self-aminoacylation: 2.69
biotinyl-Leu-oxazolone
  self-aminoacylation: 4.77
biotinyl-Phe-oxazolone
  self-aminoacylation: 24.3
biotinyl-Ile-oxazolone
  self-aminoacylation: 2.12

## AUUACCCUGGGCACCGAGUGA [Fam2.1 aminoacylation ribozyme variant]
biotinyl-Met-oxazolone
  self-aminoacylation: 6.11
biotinyl-Trp-oxazolone
  self-aminoacylation: 5.46
biotinyl-Val-oxazolone
  self-aminoacylation: 2.84
biotinyl-Leu-oxazolone
  self-aminoacylation: 6.68
biotinyl-Phe-oxazolone
  self-aminoacylation: 37.9
biotinyl-Ile-oxazolone
  self-aminoacylation: 3.37

## AUUACCCUGGGCAUCCAGUGA [Fam2.1 aminoacylation ribozyme variant]
biotinyl-Met-oxazolone
  self-aminoacylation: 8.06
biotinyl-Trp-oxazolone
  self-aminoacylation: 7.23
biotinyl-Val-oxazolone
  self-aminoacylation: 3.83
biotinyl-Leu-oxazolone
  self-aminoacylation: 8.87
biotinyl-Phe-oxazolone
  self-aminoacylation: 50.6
biotinyl-Ile-oxazolone
  self-aminoacylation: 3.76

## AUUACCCUGGGCAUCGAAUGA [Fam2.1 aminoacylation ribozyme variant]
biotinyl-Met-oxazolone
  self-aminoacylation: 0.647
biotinyl-Trp-oxazolone
  self-aminoacylation: 2.01
biotinyl-Val-oxazolone
  self-aminoacylation: 0.934
biotinyl-Leu-oxazolone
  self-aminoacylation: 0.912
biotinyl-Phe-oxazolone
  self-aminoacylation: 1.14
biotinyl-Ile-oxazolone
  self-aminoacylation: 0.945

## AUUACCCUGGGCAUCGCGUGA [Fam2.1 aminoacylation ribozyme variant]
biotinyl-Met-oxazolone
  self-aminoacylation: 6.98
biotinyl-Trp-oxazolone
  self-aminoacylation: 7.7
biotinyl-Val-oxazolone
  self-aminoacylation: 5.38
biotinyl-Leu-oxazolone
  self-aminoacylation: 9.41
biotinyl-Phe-oxazolone
  self-aminoacylation: 48.7
biotinyl-Ile-oxazolone
  self-aminoacylation: 3.74

## AUUACCCUGGUAAUCCAGUGA [Fam2.1 aminoacylation ribozyme variant]
biotinyl-Met-oxazolone
  self-aminoacylation: 8.47
biotinyl-Trp-oxazolone
  self-aminoacylation: 10.7
biotinyl-Val-oxazolone
  self-aminoacylation: 4.36
biotinyl-Leu-oxazolone
  self-aminoacylation: 8.77
biotinyl-Phe-oxazolone
  self-aminoacylation: 51.9
biotinyl-Ile-oxazolone
  self-aminoacylation: 4.07

## AUUACCCUGGUAAUCGGGUGA [Fam2.1 aminoacylation ribozyme variant]
biotinyl-Met-oxazolone
  self-aminoacylation: 12.4
biotinyl-Trp-oxazolone
  self-aminoacylation: 12.1
biotinyl-Val-oxazolone
  self-aminoacylation: 4.83
biotinyl-Leu-oxazolone
  self-aminoacylation: 13.1
biotinyl-Phe-oxazolone
  self-aminoacylation: 86.9
biotinyl-Ile-oxazolone
  self-aminoacylation: 4.26

## AUUACCCUGGUAAUUGAGUGA [Fam2.1 aminoacylation ribozyme variant]
biotinyl-Met-oxazolone
  self-aminoacylation: 16.2
biotinyl-Trp-oxazolone
  self-aminoacylation: 19.2
biotinyl-Val-oxazolone
  self-aminoacylation: 6.33
biotinyl-Leu-oxazolone
  self-aminoacylation: 17.1
biotinyl-Phe-oxazolone
  self-aminoacylation: 117
biotinyl-Ile-oxazolone
  self-aminoacylation: 6.96

## AUUACCCUGGUCAACCAGUGA [Fam2.1 aminoacylation ribozyme variant]
biotinyl-Met-oxazolone
  self-aminoacylation: 6.42
biotinyl-Trp-oxazolone
  self-aminoacylation: 7.15
biotinyl-Val-oxazolone
  self-aminoacylation: 3.78
biotinyl-Leu-oxazolone
  self-aminoacylation: 6.76
biotinyl-Phe-oxazolone
  self-aminoacylation: 39.2
biotinyl-Ile-oxazolone
  self-aminoacylation: 3.9

## AUUACCCUGGUCAACGAGGGA [Fam2.1 aminoacylation ribozyme variant]
biotinyl-Met-oxazolone
  self-aminoacylation: 1.49
biotinyl-Trp-oxazolone
  self-aminoacylation: 2.56
biotinyl-Val-oxazolone
  self-aminoacylation: 1.56
biotinyl-Leu-oxazolone
  self-aminoacylation: 1.85
biotinyl-Phe-oxazolone
  self-aminoacylation: 1.26
biotinyl-Ile-oxazolone
  self-aminoacylation: 1.49

## AUUACCCUGGUCAACGAGUCA [Fam2.1 aminoacylation ribozyme variant]
biotinyl-Met-oxazolone
  self-aminoacylation: 1.05
biotinyl-Trp-oxazolone
  self-aminoacylation: 0.482
biotinyl-Val-oxazolone
  self-aminoacylation: 0.969
biotinyl-Leu-oxazolone
  self-aminoacylation: 0.745
biotinyl-Phe-oxazolone
  self-aminoacylation: 0.683
biotinyl-Ile-oxazolone
  self-aminoacylation: 1.14

## AUUACCCUGGUCAACGAGUGG [Fam2.1 aminoacylation ribozyme variant]
biotinyl-Met-oxazolone
  self-aminoacylation: 1.49
biotinyl-Trp-oxazolone
  self-aminoacylation: 1.78
biotinyl-Val-oxazolone
  self-aminoacylation: 1.09
biotinyl-Leu-oxazolone
  self-aminoacylation: 1.38
biotinyl-Phe-oxazolone
  self-aminoacylation: 2.19
biotinyl-Ile-oxazolone
  self-aminoacylation: 1.04

## AUUACCCUGGUCACAGAGUGA [Fam2.1 aminoacylation ribozyme variant]
biotinyl-Met-oxazolone
  self-aminoacylation: 8.95
biotinyl-Trp-oxazolone
  self-aminoacylation: 9.52
biotinyl-Val-oxazolone
  self-aminoacylation: 4.01
biotinyl-Leu-oxazolone
  self-aminoacylation: 10.9
biotinyl-Phe-oxazolone
  self-aminoacylation: 54.1
biotinyl-Ile-oxazolone
  self-aminoacylation: 4.39

## AUUACCCUGGUCACCGAAUGA [Fam2.1 aminoacylation ribozyme variant]
biotinyl-Met-oxazolone
  self-aminoacylation: 1.22
biotinyl-Trp-oxazolone
  self-aminoacylation: 0.91
biotinyl-Val-oxazolone
  self-aminoacylation: 1.15
biotinyl-Leu-oxazolone
  self-aminoacylation: 1.31
biotinyl-Phe-oxazolone
  self-aminoacylation: 0.595
biotinyl-Ile-oxazolone
  self-aminoacylation: 0.992

## AUUACCCUGGUCACCGAGUGA [Fam2.1 aminoacylation ribozyme variant]
biotinyl-Met-oxazolone
  self-aminoacylation: 8.44
biotinyl-Trp-oxazolone
  self-aminoacylation: 9.22
biotinyl-Val-oxazolone
  self-aminoacylation: 4.25
biotinyl-Leu-oxazolone
  self-aminoacylation: 9.26
biotinyl-Phe-oxazolone
  self-aminoacylation: 51.3
biotinyl-Ile-oxazolone
  self-aminoacylation: 3.9

## AUUACCCUGGUCACCGAGUGG [Fam2.1 aminoacylation ribozyme variant]
biotinyl-Met-oxazolone
  self-aminoacylation: 2.6
biotinyl-Trp-oxazolone
  self-aminoacylation: 3.23
biotinyl-Val-oxazolone
  self-aminoacylation: 2.08
biotinyl-Leu-oxazolone
  self-aminoacylation: 3.56
biotinyl-Phe-oxazolone
  self-aminoacylation: 7.88
biotinyl-Ile-oxazolone
  self-aminoacylation: 1.57

## AUUACCCUGGUCACCGAGUGU [Fam2.1 aminoacylation ribozyme variant]
biotinyl-Met-oxazolone
  self-aminoacylation: 4.97
biotinyl-Trp-oxazolone
  self-aminoacylation: 5.42
biotinyl-Val-oxazolone
  self-aminoacylation: 2.55
biotinyl-Leu-oxazolone
  self-aminoacylation: 5.37
biotinyl-Phe-oxazolone
  self-aminoacylation: 16.6
biotinyl-Ile-oxazolone
  self-aminoacylation: 2.65

## AUUACCCUGGUCACUGAGUGA [Fam2.1 aminoacylation ribozyme variant]
biotinyl-Met-oxazolone
  self-aminoacylation: 3.91
biotinyl-Trp-oxazolone
  self-aminoacylation: 4.62
biotinyl-Val-oxazolone
  self-aminoacylation: 2.75
biotinyl-Leu-oxazolone
  self-aminoacylation: 3.91
biotinyl-Phe-oxazolone
  self-aminoacylation: 10.5
biotinyl-Ile-oxazolone
  self-aminoacylation: 2.75

## AUUACCCUGGUCAGCAAGUGA [Fam2.1 aminoacylation ribozyme variant]
biotinyl-Met-oxazolone
  self-aminoacylation: 4.16
biotinyl-Trp-oxazolone
  self-aminoacylation: 4.8
biotinyl-Val-oxazolone
  self-aminoacylation: 2.61
biotinyl-Leu-oxazolone
  self-aminoacylation: 4
biotinyl-Phe-oxazolone
  self-aminoacylation: 9.67
biotinyl-Ile-oxazolone
  self-aminoacylation: 2.95

## AUUACCCUGGUCAGCCAGUGA [Fam2.1 aminoacylation ribozyme variant]
biotinyl-Met-oxazolone
  self-aminoacylation: 9.13
biotinyl-Trp-oxazolone
  self-aminoacylation: 11
biotinyl-Val-oxazolone
  self-aminoacylation: 5.21
biotinyl-Leu-oxazolone
  self-aminoacylation: 10.6
biotinyl-Phe-oxazolone
  self-aminoacylation: 46.3
biotinyl-Ile-oxazolone
  self-aminoacylation: 5.41

## AUUACCCUGGUCAGCGAGUGA [Fam2.1 aminoacylation ribozyme variant]
biotinyl-Met-oxazolone
  self-aminoacylation: 4.42
biotinyl-Trp-oxazolone
  self-aminoacylation: 5.36
biotinyl-Val-oxazolone
  self-aminoacylation: 3.01
biotinyl-Leu-oxazolone
  self-aminoacylation: 4.71
biotinyl-Phe-oxazolone
  self-aminoacylation: 16.6
biotinyl-Ile-oxazolone
  self-aminoacylation: 2.92

## AUUACCCUGGUCAGCGAGUGU [Fam2.1 aminoacylation ribozyme variant]
biotinyl-Met-oxazolone
  self-aminoacylation: 3.7
biotinyl-Trp-oxazolone
  self-aminoacylation: 4.47
biotinyl-Val-oxazolone
  self-aminoacylation: 2.41
biotinyl-Leu-oxazolone
  self-aminoacylation: 3.85
biotinyl-Phe-oxazolone
  self-aminoacylation: 15.4
biotinyl-Ile-oxazolone
  self-aminoacylation: 2.49

## AUUACCCUGGUCAUACAGUGA [Fam2.1 aminoacylation ribozyme variant]
biotinyl-Met-oxazolone
  self-aminoacylation: 4.03
biotinyl-Trp-oxazolone
  self-aminoacylation: 5.95
biotinyl-Val-oxazolone
  self-aminoacylation: 3.03
biotinyl-Leu-oxazolone
  self-aminoacylation: 4.57
biotinyl-Phe-oxazolone
  self-aminoacylation: 14.8
biotinyl-Ile-oxazolone
  self-aminoacylation: 2.91

## AUUACCCUGGUCAUAGCGUGA [Fam2.1 aminoacylation ribozyme variant]
biotinyl-Met-oxazolone
  self-aminoacylation: 8.87
biotinyl-Trp-oxazolone
  self-aminoacylation: 10.6
biotinyl-Val-oxazolone
  self-aminoacylation: 4.99
biotinyl-Leu-oxazolone
  self-aminoacylation: 9.18
biotinyl-Phe-oxazolone
  self-aminoacylation: 51.8
biotinyl-Ile-oxazolone
  self-aminoacylation: 4.12

## AUUACCCUGGUCAUAGUGUGA [Fam2.1 aminoacylation ribozyme variant]
biotinyl-Met-oxazolone
  self-aminoacylation: 1.12
biotinyl-Trp-oxazolone
  self-aminoacylation: 0.799
biotinyl-Val-oxazolone
  self-aminoacylation: 0.977
biotinyl-Leu-oxazolone
  self-aminoacylation: 0.978
biotinyl-Phe-oxazolone
  self-aminoacylation: 0.987
biotinyl-Ile-oxazolone
  self-aminoacylation: 0.955
